Source: patent publication US20160017049A1 (Genentech, published 2016)

Key:
[1] = molecular target: T1, human GPC3 C-terminal truncation, amino acids 25 to 247, with GPI link (human, UniProt P51654 25-247); experiment: Western blot probed with 7H1, lysate of transiently transfected cells
T1 construct: not shown: C-terminal glycophosphatidylinositol anchor (GPI link)

[2] = molecular target: T2, human GPC3 C-terminal truncation, amino acids 25 to 137, with GPI link (human, UniProt P51654 25-137); experiment: as above
T2 construct: not shown: C-terminal glycophosphatidylinositol anchor (GPI link)
T2 sequence (P51654 25-137): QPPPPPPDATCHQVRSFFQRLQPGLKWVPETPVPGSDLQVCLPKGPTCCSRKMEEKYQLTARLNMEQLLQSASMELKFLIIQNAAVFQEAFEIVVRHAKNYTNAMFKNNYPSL

[3] = molecular target: T3, human GPC3 N-terminal fragment, amino acids 25 to 358, with GPI link (human, UniProt P51654 25-358); experiment: Western blot probed with 7H1, lysate of stably transfected cells
T3 construct: not shown: C-terminal glycophosphatidylinositol anchor (GPI link)
T3 sequence (P51654 25-358): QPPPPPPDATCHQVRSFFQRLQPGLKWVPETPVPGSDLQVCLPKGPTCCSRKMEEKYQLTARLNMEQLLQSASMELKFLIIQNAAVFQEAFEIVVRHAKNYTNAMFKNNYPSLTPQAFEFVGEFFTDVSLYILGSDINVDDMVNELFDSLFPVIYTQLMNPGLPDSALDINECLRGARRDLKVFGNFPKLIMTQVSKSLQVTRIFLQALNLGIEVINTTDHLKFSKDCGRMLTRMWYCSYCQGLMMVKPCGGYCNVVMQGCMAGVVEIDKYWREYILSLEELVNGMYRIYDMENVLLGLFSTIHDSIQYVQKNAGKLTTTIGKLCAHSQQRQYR

[4] = molecular target: T4, human GPC3 C-terminal fragment, amino acids 359 to 560, with GPI link (human, UniProt P51654 359-560); experiment: FACS on 293S cells expressing the C-terminal fragment of GPC3
T4 construct: also called huGPC(aa359-560); not shown: C-terminal glycophosphatidylinositol anchor (GPI link)
T4 sequence: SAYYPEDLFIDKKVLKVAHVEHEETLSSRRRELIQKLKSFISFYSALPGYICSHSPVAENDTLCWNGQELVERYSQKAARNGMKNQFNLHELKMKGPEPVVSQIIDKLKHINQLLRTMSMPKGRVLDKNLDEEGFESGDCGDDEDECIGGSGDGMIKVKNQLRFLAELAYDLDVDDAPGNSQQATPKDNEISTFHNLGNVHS
Source text: C-terminal truncation constructs of human GPC3 were made to further refine the epitopes for antibodies 7H1 and 4G7. […] The three C-terminal truncations each comprised the GPC N-terminal signal sequence (SS) and C-terminal glycophosphatidylinositol anchor (GPI link). […] See FIG. 7 (Santa Cruz Biotechnology antibody 1G12, which was raised to amino acids 511-580 of human GPC3, was used as a positive control for C-terminal fragment binding). Antibody 7H1 was reformatted as a chimeric antibody with human A118C cysteine-engineered IgG1 and Igκ constant regions (SEQ ID NOs: 42 and 43).

huGPC(aa359-470) = molecular target: T5, huGPC(aa359-470) (HSV; human); experiment: FACS on 293 cells expressing the gD-tagged fragment
T5 construct: Expressed on the surface of 293 cells; not shown: C-terminal glycophosphatidylinositol anchor (GPI link)
T5 chain: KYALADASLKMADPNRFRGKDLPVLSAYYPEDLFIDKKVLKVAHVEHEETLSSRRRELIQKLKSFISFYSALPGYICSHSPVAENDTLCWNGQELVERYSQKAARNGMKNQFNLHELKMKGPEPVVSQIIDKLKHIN
Method: (§1) C-terminal truncation constructs of huGPC(aa359-589) were made to further refine the epitopes for antibodies 4A11 and 15G1. […] The three C-terminal truncations each comprised an HSV N-terminal signal sequence (SS) and gD sequence (SEQ ID NO: 41) and C-terminal glycophosphatidylinositol anchor (GPI link). The huGPC truncation constructs were expressed on the surface of 293 cells and antibody binding was determined by FACS. An anti-gD was used as a positive control. Vector-transfected 293 cells were used as a negative control.

huGPC(aa359-559) = molecular target: T6, huGPC(aa359-559) (human, UniProt P51654 359-559); experiment: as above
T6 construct: Expressed on the surface of 293 cells
T6 sequence: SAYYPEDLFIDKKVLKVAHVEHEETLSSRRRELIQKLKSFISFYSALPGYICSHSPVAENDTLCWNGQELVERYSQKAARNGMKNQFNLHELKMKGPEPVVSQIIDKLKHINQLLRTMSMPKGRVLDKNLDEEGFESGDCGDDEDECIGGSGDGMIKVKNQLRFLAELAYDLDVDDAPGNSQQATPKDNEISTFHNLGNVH
Method: as §1

huGPC(aa359-509) = molecular target: T7, huGPC(aa359-509) (HSV; human); experiment: as above
T7 construct: Expressed on the surface of 293 cells; not shown: C-terminal glycophosphatidylinositol anchor (GPI link)
T7 chain: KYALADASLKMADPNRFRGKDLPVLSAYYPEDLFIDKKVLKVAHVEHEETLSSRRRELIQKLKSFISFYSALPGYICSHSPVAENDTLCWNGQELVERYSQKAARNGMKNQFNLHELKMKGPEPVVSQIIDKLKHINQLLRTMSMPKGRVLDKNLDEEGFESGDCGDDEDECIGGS
Method: as §1

T1 sequence (P51654 25-247): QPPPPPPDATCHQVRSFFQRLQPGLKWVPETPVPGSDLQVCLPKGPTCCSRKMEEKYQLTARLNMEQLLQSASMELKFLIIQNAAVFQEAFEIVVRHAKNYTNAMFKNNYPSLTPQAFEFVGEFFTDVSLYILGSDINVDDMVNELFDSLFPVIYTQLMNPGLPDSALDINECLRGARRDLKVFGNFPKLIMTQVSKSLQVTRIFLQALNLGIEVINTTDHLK

B1: antibody 7H1 (antibody, V domains shown)
VH: QVQLQQSGPELVKPGASVKISCKASGYTFTDYYINWVKQKPGQGLEWIGWIYPGSGHTECNETFKGKATLTVDTSSSTAYMQLSSLTSEDTAVYFCTRGYYAPMGYFDYWGQGTTLTVSS
VL: DIQMTQSPSSLSASLGERVSLTCRASQEISGYLSWLQQKPDGTIKRLIYAASTLDSGVPKRFSGSRSGSDYSLTISGLESEDFADYYCLQYASYPYTFGGGTKLEIK
notes: Mouse monoclonal from Balb/c mice immunised with huGPC3 ECD-Flag
[1]
  binding result: binds
[2]
  binding result: binds
[3]
  binding result: binds
[4]
  binding result: no binding

B2: antibody 15G1 (antibody, human IgG1, kappa, V domains shown)
VH: EVQLLETGGGLVQPGGSRGLSCEGSGFTFSGFWMSWVRQTPGKTLEWIGDINSDGSSINYAPSIKDRFTIFRDNDKSILYLQMTNVRSEDTGTYFCVTTYGDYWGQGTTLTVSS
VL: DIVMTQSQKFMSTSVGDRVSVTCKASQNVGSHVGWYQQKSGQSPKALIYSASNRYIGVPDRFTGSGSGTDFTLTISNVQSEDLAEYFCQQYHIYPYTFGGGTRLEIKR
notes: also called 15G1 thio-HC A118C
huGPC(aa359-470)
  binding result: binds
huGPC(aa359-559)
  binding result: binds
huGPC(aa359-509)
  binding result: binds

B3: antibody 4G7 (antibody, V domains shown)
VH: EVQLQQSGTVLARPGASVKMSCKASGYTFTSYWVHWVKQRPGQGLEWIGAIYPGNIDASYNQKFKGKAKLTAVTSTSTAYMELSSLTNEDSAVYYCSYDYDAWFVYWGQGTLVTVSA
VL: DIQMTQSHKFMSTSVGDRVSITCKASQDVSTAVAWYQQKPGQSPTLLIYSASYRYTGVPDRFTGSGSGTDFTFTISSVQAEDLAVYYCQQHYFTPRTFGGGTKLELK
[4]
  binding result: no binding

B4: antibody 4A11 (antibody, human IgG1, kappa)
heavy: not shown
light: DIVMTQSPSSMYASLGERVTITCKASQDINSYLSWFQQKPGKSPKTLIYRVNRLVDGVPSRFSGSGSGQDYSLTISSLEYEDVGIYYCLQYDEFPLTLGAGTKLELKRTVAAPSVFIFPPSDEQLKSGTASVVCLLNNFYPREAKVQWKVDNALQSGNSQESVTEQDSKDSTYSLSSTLTLSKADYEKHKVYACEVTHQGLSSPVTKSFNRGEC
notes: also called 4A11 thio-HC A118C
huGPC(aa359-559)
  binding result: binds
huGPC(aa359-509)
  binding result: binds
